Where a SMILES comes first, the peptide text is derived from it. Bridges are numbered along the chain shown (N, C = ends). [ ]: non-standard residue; d: D form. The star is where a group is joined. DOTA(p-xylylenediamine) = O=C(O)CN1CCN(CC(=O)O)CCN(CC(=O)NCc2ccc(CN*)cc2)CCN(CC(=O)O)CC1; DOTA = O=C(O)CN1CCN(CC(=O)O)CCN(CC(=O)*)CCN(CC(=O)O)CC1; Tyr(3-Cl) = N[C@@H](Cc1ccc(O)c(Cl)c1)C(=O)O; Hyp = O=C(O)[C@@H]1C[C@@H](O)CN1
Columns and labels:
[1] = Plasma pharmacokinetics and metabolite profiling by reverse phase HPLC-ICP-MS after i.v. injection; format: in vivo; conditions: rats; for metabolic behavior in plasma over time (degradation of intact probe): i.v., plasma 5-60 min post injection, C18 HPLC-ICP-MS chromatograms; for relative amount of metabolites with time post injection: plasma, C18 HPLC-ICP-MS, Ga-FBP18: metabolite group C (shortest retention times), In-FBP19: all metabolites
Experimental: (§1) An Agilent 8800 ICP-MSMS interfaced to an Agilent 1260 HPLC was used. 20% option gas (20% O2, 80% Ar) was added to pyrolyze any carbon deposits on the cones from the HPLC mobile phase while 40% O2 was used as cell gas when conducting reverse phase analysis. HPLC method 3: C18 column (Kromasil 5 μm C18, 250 × 4.60 mm), 0.8 mL/min, mobile phase A (water, 10 mM NaOAc), mobile phase B (90% acetonitrile, 10% 10 mM NaOAc), gradient: min. 0–2: 5% B; min 12: 50% B; min 13: 95% B; min 15: 95% B; min 16: 5% B; min 18: 5% B. HPLC method 4: size exclusion chromatography (SEC) Column (Phenomenex BioSep-SEC-s2000, 300 × 7.80 mm), 1 mL/min, mobile phase TBS, isocratic, 18 min. The SEC column was standardized using a protein marker kit (Sigma-Aldrich, P/N: MWGF1000). Ga(DOTA) and In(DOTA) were used to determine the limit of detection and limit of quantification, and to generate a calibration curve for quantification using RP-separation. Calibration standards of Ga(DOTA) and In(DOTA) ranging from 10 nM to 1 μM were prepared by serial dilution from stocks. 100 μL of each standard was analyzed by direct injection onto the reverse phase HPLC-ICP-MS (HPLC method 3), and the integrals of each metal-FBP peak were recorded. An aliquot of each calibration standard was then digested 1:1 with nitric acid and incubated overnight at 37 °C before being analyzed for its metal concentration by ICP-MS. These metal concentrations were plotted against the previously recorded integrals to generate the metal-FBP calibration plots (Additional file 1: Figure S1). Limits of detection and quantification were calculated using an established method (MacDougall & Crummett [1980]).
Ga-FBP17, Ga-FBP18, In-FBP15, In-FBP19 (50–150 nmol, with concentrations determined by direct inject ICP-MS) in 0.6 mL sterile PBS were injected either individually or as a mixture of Ga-FBP17/In-FBP15 or Ga-FBP18/In-FBP19 into anesthetized rats via cannulated femoral vein, followed by saline flush. Blood (0.2 mL) was drawn at time points 5, 10, 15, 30 and 60 min post injection via cannulated femoral artery into heparin-containing tubes. Tubes were centrifuged at 2000 g for 10 min to separate the plasma. Plasma was diluted 1:1 with chelex-treated TBS and 100 μL of sample was injected onto the HPLC-ICP-MSMS, scanning for Ga and In at m/z = 69 and 115, respectively. Peaks were integrated and measured against a standard calibration curve.

[2] = Size exclusion chromatography HPLC-ICP-MS of plasma samples to detect transchelation to plasma proteins; format: in vivo; conditions: rats, i.v., SEC HPLC-ICP-MS (BioSep-SEC-s2000, TBS), compared with pure Ga-/In-transferrin standard
Experimental: Ga and In transferrin complexes were synthesized using a 1.3 equivalent excess of protein and purification with Zeba™ Spin Desalting Columns (ThermoFisher Scientific), to remove unchelated Ga and In. TBS buffer was prepared by mixing 150 mM NaCl, 50 mM Tris and 5 mM NaHCO3 followed by stirring over chelex overnight and subsequent filtration.
as §1, with “The SEC column was standardized using a protein marker kit (Sigma-Aldrich, P/N: MWGF1000).” left out, “Calibration standards of Ga(DOTA) and In(DOTA) ranging from 10 nM to 1 μM were prepared by serial dilution from stocks.” left out
Ga-FBP17, Ga-FBP18, In-FBP15, In-FBP19 (50–150 nmol, with concentrations determined by direct inject ICP-MS) in 0.6 mL sterile PBS were injected either individually or as a mixture of Ga-FBP17/In-FBP15 or Ga-FBP18/In-FBP19 into anesthetized rats via cannulated femoral vein, followed by saline flush. […]

Structure (SMILES): CC[C@H](C)[C@H](NC(=O)[C@H](Cc1c[nH]cn1)NC(=O)[C@@H]1CSSC[C@H](NC(=O)[C@H](Cc2c[nH]cn2)NC(=O)[C@H](Cc2ccccc2)NC(=O)CN2CCN(CC(=O)O)CCN(CC(=O)O)CCN(CC(=O)O)CC2)C(=O)N2C[C@H](O)C[C@H]2C(=O)N[C@@H](Cc2ccc(O)c(Cl)c2)C(=O)N[C@@H](CC(=O)O)C(=O)N[C@@H](CC(C)C)C(=O)N1)C(=O)N[C@@H](CC(C)C)C(=O)NCc1ccc(CNC(=O)CN2CCN(CC(=O)O)CCN(CC(=O)O)CCN(CC(=O)O)CC2)cc1 [Ga-FBP17] ({DOTA}-FHC[Hyp][Tyr(3-Cl)]DLCHIL-{DOTA(p-xylylenediamine)}; disulfide 3-8)
- half-life ([1]; rat, iv, i.v. via femoral vein, 50–150 nmol in PBS, plasma from blood drawn 5, 10, 15, 30, 60 min post injection, intact probe quantified by C18 HPLC-ICP-MS (m/z 69 Ga, 115 In), monoexponential clearance assumed, read-out: calculated half-life of the intact complex): 9 min
- metabolic behavior in plasma over time (degradation of intact probe) [1]: only minimal degradation over time
- transchelation to transferrin / high molecular weight species in plasma [2]: did not observe Ga-transferrin or other high molecular weight species

Structure (SMILES): CC[C@H](C)[C@H](NC(=O)[C@H](Cc1c[nH]c2ccccc12)NC(=O)[C@@H]1CSSC[C@H](NC(=O)[C@@H](CCC(=O)O)NC(=O)[C@H](Cc2c[nH]c3ccccc23)NC(=O)CN2CCN(CC(=O)O)CCN(CC(=O)O)CCN(CC(=O)O)CC2)C(=O)N2C[C@H](O)C[C@H]2C(=O)N[C@@H](Cc2ccc(O)c(Cl)c2)C(=O)NCC(=O)N[C@@H](CC(C)C)C(=O)N1)C(=O)N[C@@H](CCC(N)=O)C(=O)NCc1ccc(CNC(=O)CN2CCN(CC(=O)O)CCN(CC(=O)O)CCN(CC(=O)O)CC2)cc1 [Ga-FBP18] ({DOTA}-W[dE]C[Hyp][Tyr(3-Cl)]GLCWIQ-{DOTA(p-xylylenediamine)}; disulfide 3-8)
- metabolic behavior in plasma over time (degradation of intact probe) [1]: rapid metabolism
- relative amount of metabolites with time post injection [1]: increased with time post injection
- transchelation to transferrin / high molecular weight species in plasma [2]: identified Ga-transferrin as a metabolite

Structure (SMILES): CC[C@H](C)[C@H](NC(=O)[C@H](Cc1c[nH]cn1)NC(=O)[C@@H]1CSSC[C@H](NC(=O)[C@H](Cc2c[nH]cn2)NC(=O)[C@H](Cc2ccccc2)NC(=O)CN2CCN(CC(=O)O)CCN(CC(=O)O)CCN(CC(=O)O)CC2)C(=O)N2C[C@H](O)C[C@H]2C(=O)N[C@@H](Cc2ccc(O)c(Cl)c2)C(=O)N[C@@H](CC(=O)O)C(=O)N[C@@H](CC(C)C)C(=O)N1)C(=O)N[C@@H](CC(C)C)C(=O)NCc1ccc(CNC(=O)CN2CCN(CC(=O)O)CCN(CC(=O)O)CCN(CC(=O)O)CC2)cc1 [In-FBP15] ({DOTA}-FHC[Hyp][Tyr(3-Cl)]DLCHIL-{DOTA(p-xylylenediamine)}; disulfide 3-8)
- metabolic behavior in plasma over time (degradation of intact probe) [1]: only minimal degradation over time

Structure (SMILES): CC[C@H](C)[C@H](NC(=O)[C@H](Cc1c[nH]c2ccccc12)NC(=O)[C@@H]1CSSC[C@H](NC(=O)[C@@H](CCC(=O)O)NC(=O)[C@H](Cc2c[nH]c3ccccc23)NC(=O)CN2CCN(CC(=O)O)CCN(CC(=O)O)CCN(CC(=O)O)CC2)C(=O)N2C[C@H](O)C[C@H]2C(=O)N[C@@H](Cc2ccc(O)c(Cl)c2)C(=O)NCC(=O)N[C@@H](CC(C)C)C(=O)N1)C(=O)N[C@@H](CCC(N)=O)C(=O)NCc1ccc(CNC(=O)CN2CCN(CC(=O)O)CCN(CC(=O)O)CCN(CC(=O)O)CC2)cc1 [In-FBP19] ({DOTA}-W[dE]C[Hyp][Tyr(3-Cl)]GLCWIQ-{DOTA(p-xylylenediamine)}; disulfide 3-8)
- metabolic behavior in plasma over time (degradation of intact probe) [1]: rapid metabolism
- relative amount of metabolites with time post injection [1]: roughly constant with time
- transchelation to transferrin / high molecular weight species in plasma [2]: did not identify In-transferrin in the plasma samples

Reference: publication PMC5824709, “Metabolite profiling with HPLC-ICP-MS as a tool for in vivo characterization of imaging probes” (EJNMMI Radiopharmacy and Chemistry, 2018)
